Where two headings read alike, the source gives them in different places.
How the values were obtained:
[1] = molecular target: P (Human respiratory syncytial virus) (UniProt P03421); settings: cited from earlier work
[2] = molecular target: P (Human respiratory syncytial virus) (UniProt P03421); assay: ITC; settings: cited from earlier work
[3] = molecular target: RSV P D110A (untagged, from pP) (human respiratory syncytial virus, strain Long) (UniProt P12579)
[4] = molecular target: RSV P D95A (untagged, from pP) (human respiratory syncytial virus, strain Long) (UniProt P12579)

| Substance | Kd [1] | Kd [2] | minigenome activity (firefly luciferase, pM/Luc) in BSRT7/5 cells [3] | minigenome activity (firefly luciferase, pM/Luc) in BSRT7/5 cells [4] |
| --- | --- | --- | --- | --- |
| M2-1 (from UniProt P04545) | 8.1 nM | 3000 nM |  |  |
| RSV M2-1 expressed in BSRT7/5 cells, unphosphorylated form (from UniProt P04545 1-194) (natural protein) |  |  | 50 % decrease | 50 % decrease |
